Assay results from US20160151519A1 (JOHN HOPKINS UNIVERSITY, published 2016).
Each block holds one molecule with its values, some of them ahead of it.

B2: carcinoembryonic antigen (CEA) immunopurified from LS174T colon carcinoma cell lysate (ligand, human, UniProt P06731 35-685, looked up)
chain: KLTIESTPFNVAEGKEVLLLVHNLPQHLFGYSWYKGERVDGNRQIIGYVIGTQQATPGPAYSGREIIYPNASLLIQNIIQNDTGFYTLHVIKSDLVNEEATGQFRVYPELPKPSISSNNSKPVEDKDAVAFTCEPETQDATYLWWVNNQSLPVSPRLQLSNGNRTLTLFNVTRNDTASYKCETQNPVSARRSDSVILNVLYGPDAPTISPLNTSYRSGENLNLSCHAASNPPAQYSWFVNGTFQQSTQELFIPNITVNNSGSYTCQAHNSDTGLNRTTVTTITVYAEPPKPFITSNNSNPVEDEDAVALTCEPEIQNTTYLWWVNNQSLPVSPRLQLSNDNRTLTLLSVTRNDVGPYECGIQNELSVDHSDPVILNVLYGPDDPTISPSYTYYRPGVNLSLSCHAASNPPAQYSWLIDGNIQQHTQELFISNITEKNSGLYTCQANNSASGHSRTTVKTITVSAELPKPSISSNNSKPVEDKDAVAFTCEPEAQNTTYLWWVNGQSLPVSPRLQLSNGNRTLTLFNVTRNDARAYVCGIQNSVSANRSDPVTLDVLYGPDTPIISPPDSSYLSGANLNLSCHSASNPSPQYSWRINGIPQQHTQVLFIAKITPNNNGTYACFVSNLATGRNNSIVKSITVSASGTSPGLSA
modifications: sialofucosylated (HECA-452-reactive) O-linked glycans
notes: mature; One entry for CEA from wild-type and from CD44-knockdown LS174T cells; Used as blot band or adsorbed on microspheres; also called CD66e; CEACAM5

Columns and labels:
[1] = target: E-selectin-IgG Fc chimera (human) (UniProt P16581); experiment: flow-based adhesion assay, sialidase-treated against untreated PCLP-coated microbeads on 10 µg/ml E-selectin at 1 dyn/cm2
[2] = target: B2; experiment: cell-free flow-based adhesion assay, CEA-coated microspheres
Description: A cell-free flow-based adhesion assay (Hanley, et al., 20(2) FASEB J. 20(2), 337-339 (2006); Napier, et al., 282(6) J. BIOL. CHEM. 3433-3441 (2007)) was used to compare the adhesion of microspheres coated with CEA immunopurified from wildtype versus CD44-knockdown LS174T colon carcinoma cells to selectin substrates in shear flow. This technique allows quantitative comparisons of CEA-mediated adhesion to selectin substrates at prescribed CEA and selectin site densities under physiological flow conditions.
To test this hypothesis, the CEA-coated microspheres were perfused over purified selectin substrates under prescribed wall shear stress levels. As expected from blot rolling assays, microspheres coated with CEA from either cell type were capable of tethering and rolling over E- and L-, but not P-, selectin substrates, albeit with varying efficiencies (FIG. 8C-E). Most importantly, the extent of tethering of CD44-knockdown LS174T CEA-coated microspheres to E-selectin was lower than that of microspheres decorated with CEA from wildtype LS174T cells (FIG. 8C). […] In contrast, no difference was detected in either the extent of tethering (FIG. 8C) or the average rolling velocities (FIG. 8E) of microspheres coated with CEA from either cell type over L-selectin.

[3] = target: T1, P-selectin on CHO cells stably transfected with the phosphatidylinositol glycan-linked extracellular domain … (UniProt P16109 42-771, limits assumed, phosphatidylinositol glycan-linked); experiment: blot rolling assay: CHO-P cells perfused at 0.5 dyn/cm2 over blot of immunopurified CEA
T1 construct: extracellular domain; also called P-selectin-expressing CHO cells
T1 sequence (looked up): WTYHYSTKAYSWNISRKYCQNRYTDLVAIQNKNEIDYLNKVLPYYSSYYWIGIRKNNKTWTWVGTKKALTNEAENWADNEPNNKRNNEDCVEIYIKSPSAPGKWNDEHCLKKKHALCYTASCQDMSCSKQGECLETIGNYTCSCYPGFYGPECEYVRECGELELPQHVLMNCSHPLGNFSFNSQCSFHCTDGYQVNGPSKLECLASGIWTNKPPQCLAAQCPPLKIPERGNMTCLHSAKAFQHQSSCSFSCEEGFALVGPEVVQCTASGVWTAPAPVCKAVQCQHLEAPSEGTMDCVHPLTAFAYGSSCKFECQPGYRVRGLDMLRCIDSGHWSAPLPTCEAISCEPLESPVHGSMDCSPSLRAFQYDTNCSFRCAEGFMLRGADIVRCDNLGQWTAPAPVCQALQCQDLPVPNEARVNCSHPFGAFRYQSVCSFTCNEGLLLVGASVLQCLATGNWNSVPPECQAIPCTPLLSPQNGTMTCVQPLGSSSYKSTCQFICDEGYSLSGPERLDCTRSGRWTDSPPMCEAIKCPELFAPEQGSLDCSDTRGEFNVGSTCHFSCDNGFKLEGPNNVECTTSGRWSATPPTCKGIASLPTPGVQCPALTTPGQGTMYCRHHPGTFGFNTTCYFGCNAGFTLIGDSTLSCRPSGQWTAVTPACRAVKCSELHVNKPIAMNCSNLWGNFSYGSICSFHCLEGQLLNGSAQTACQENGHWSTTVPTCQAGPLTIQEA
Protocol: In select experiments, CHO-E cells and lymphocytes were pre-treated with an anti-E-selectin or an anti-L-selectin function blocking mAb (20 μg/ml), respectively, before use in blot rolling assays. The saturating concentration of the mAb (20 μg/ml) was maintained in the perfusion assays. Data represent the mean±S.E. of n≧3 experiments.
(§1) Fuhlbrigge et al., I 68 J. IMMUNOL. 5645-5651 (2002). The blots were placed under a parallel-plate flow chamber, and human peripheral blood lymphocytes or CHO transfectants, re-suspended at 5×10⁶ cells/ml in 90% D-PBS/I 0% glycerol, were perfused at the shear stress of 0.5 dyn/cm². Hanley et al., 20 FASEB J. 337-339 (2006); Napier et al., 282 J. BIOL. CHEM. […] Non-specific adhesion was assessed by perfusing 5 mM EDTA in the flow medium.
Although previous studies have reported that CEA and CEA-family members such as CD66c (Kuijpers, et al., 118(2) J CELL BIOL. 457-466 (1992)) bind E-selectin under static/no-flow conditions, the capacity of CEA to interact with E-selectin under physiologically relevant flow conditions as well as its potential cross-reactivity with L- and P-selectin have yet to be examined. […] The specificity of these adhesive interactions was assessed by incubating CHO-E cell suspensions or lymphocytes with an anti-E-selectin or an anti-L-selectin function-blocking mAb, respectively (FIG. 6B).

[4] = target: B2; experiment: blot rolling assay with human peripheral blood lymphocytes at 0.5 dyn/cm2
Description: FIGS. 6A-6B provides the Western blot results from CD66e experiments. […] B: Selectin-dependent adhesion to SDS-PAGE resolved and blotted CEA immunoprecipitated from CD44-knockdown LS174T whole cell lysate. CHO-E cells, lymphocytes or CHO-P cells were perfused at the wall shear stress level of 0.5 dyn/cm² over SDS-PAGE immunoblots of immunopurified CD66e from whole cell lysate of CD44-knockdown LSI 74T cells. In select experiments, CHO-E cells and lymphocytes were pre-treated with an anti-E-selectin or an anti-L-selectin function blocking mAb (20 μg/ml), respectively, before use in blot rolling assays. The saturating concentration of the mAb (20 μg/ml) was maintained in the perfusion assays. Data represent the mean±S.E. of n≧3 experiments.
as §1, with “CHEM. 3433-3441 (2007); and Thomas et al., 283 J BIOL CHEM 15647-15655 (2008). Molecular weight markers were used as guides to aid placement of the flow chamber over stained bands of interest.” for “CHEM.”

[5] = target: T2, CD66c immunopurified from LS174T colon carcinoma cell lysate (human, UniProt P40199 35-320); experiment: cell-free flow-based adhesion assay, CD66c-coated microspheres
T2 construct: mature; Blot band or adsorbed on microspheres
T2 sequence (looked up): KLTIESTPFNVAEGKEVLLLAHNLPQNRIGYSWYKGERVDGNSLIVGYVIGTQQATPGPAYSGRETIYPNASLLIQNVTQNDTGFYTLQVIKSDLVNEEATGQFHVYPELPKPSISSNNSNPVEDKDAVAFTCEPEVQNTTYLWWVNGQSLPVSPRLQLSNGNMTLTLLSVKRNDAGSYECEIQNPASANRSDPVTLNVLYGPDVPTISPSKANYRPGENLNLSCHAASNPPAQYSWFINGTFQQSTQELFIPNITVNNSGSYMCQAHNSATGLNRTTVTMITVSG

reduction of binding after sialidase treatment [1]: 80%
Molecule: podocalyxin-like protein (PCLP) immunopurified from LS174T colon carcinoma cell lysate (from UniProt O00592 23-558) (ligand)

B1: P-selectin-IgG Fc chimera (Fc fusion, human, UniProt P16109 42-321, looked up)
chain: WTYHYSTKAYSWNISRKYCQNRYTDLVAIQNKNEIDYLNKVLPYYSSYYWIGIRKNNKTWTWVGTKKALTNEAENWADNEPNNKRNNEDCVEIYIKSPSAPGKWNDEHCLKKKHALCYTASCQDMSCSKQGECLETIGNYTCSCYPGFYGPECEYVRECGELELPQHVLMNCSHPLGNFSFNSQCSFHCTDGYQVNGPSKLECLASGIWTNKPPQCLAAQCPPLKIPERGNMTCLHSAKAFQHQSSCSFSCEEGFALVGPEVVQCTASGVWTAPAPVCKA
notes: domain: lectin, epidermal growth factor and consensus repeat domains; From Wyeth External Research; immobilised on dishes; also called chimeric form of P-selectin-IgG Fc; not shown: human IgG1 (printed 'IgGi'); selectin domains linked to each arm of the IgG
binding result [2]: no binding (tested: 10 µg/ml P-selectin coating)

Molecule: B2
binding result [3]: no binding

binding result [4]: binds
B3: L-selectin on human peripheral blood lymphocytes (receptor, UniProt P14151 39-372, looked up)
chain: WTYHYSEKPMNWQRARRFCRDNYTDLVAIQNKAEIEYLEKTLPFSRSYYWIGIRKIGGIWTWVGTNKSLTEEAENWGDGEPNNKKNKEDCVEIYIKRNKDAGKWNDDACHKLKAALCYTASCQPWSCSGHGECVEIINNYTCNCDVGYYGPQCQFVIQCEPLEAPELGTMDCTHPLGNFSFSSQCAFSCSEGTNLTGIEETTCGPFGNWSSPEPTCQVIQCEPLSAPDLGIMNCSHPLASFSFTSACTFICSEGTELIGKKKTICESSGIWSNPSPICQKLDKSFSMIKEGDYNPLFIPVAVMVTAFSGLAFIIWLARRLKKGKKSKRSMNDPY
notes: whole, on cells; also called Lymphocyte (L-selectin); L-selectin-expressing human peripheral blood lymphocytes

binding result [5]: no binding
B4: E-selectin-IgG Fc chimera (Fc fusion, human, UniProt P16581 22-301, looked up)
chain: WSYNTSTEAMTYDEASAYCQQRYTHLVAIQNKEEIEYLNSILSYSPSYYWIGIRKVNNVWVWVGTQKPLTEEAKNWAPGEPNNRQKDEDCVEIYIKREKDVGMWNDERCSKKKLALCYTAACTNTSCSGHGECVETINNYTCKCDPGFSGLKCEQIVNCTALESPEHGSLVCSHPLGNFSYNSSCSISCDRGYLPSSMETMQCMSSGEWSAPIPACNVVECDAVTNPANGFVECFQNPGSFPWNTTCTFDCEEGFELMGAQSLQCTSSGNWDNEKPTCKA
notes: domain: lectin, epidermal growth factor and consensus repeat domains; From Wyeth External Research; immobilised on dishes (10 µg/ml for microbeads, 0.75 µg/ml for cells); also called chimeric form of E-selectin-IgG Fc; not shown: human IgG1 (printed 'IgGi'); selectin domains linked to each arm of the IgG
